The values that follow come from patent US20030124568A1 (published 2003).

Common to all, as to test: yeast two-hybrid cotransformation in Y190
The target in assay [1] is T1, GIRK1-NC-bait (GAL4-DNA binding domain fused to the N terminus of the GIRK1 subunit, a linker sequence GSSGSS … (rat, UniProt P04386 1-147; P63251 1-80; P63251 180-501, limits assumed).
T1 construct: Yeast two-hybrid bait in pDBLeu, expressed in yeast strain Y190
The source says: (§1) The DNA (accession no.: U09243, EMBL datebase) coding for the carboxyl terminus or the amino terminus of the GIRK1 subunit was amplified by PCR starting from the plasmid “GIRK1NC-bait” using the primers GGIRK1-4s (5′-[…]-3′) and GGIRK1-as (5′-[…]-3′) or GIRK1-NC-s (5′ -[…]-3′) and GIRK1-N-as (5′-[…]-3′) and cloned into the vector pDBLeu. Each of the plasmids was cotransformed with the pPC86 plasmid. GIRK1NCprey2 (SEQ ID NO: 1 nucleotides 1011-1349) or with the plasmid GIRK1NCprey3 (SEQ ID NO: 1, nucleotides 500-1193) into the yeast strain Y190. […] It is evident that the interaction with Mogli takes place only in the presence of both intracellular portions of GIRK1.

In assay [2] the target is T2, carboxyl terminus of the GIRK1 subunit cloned into the vector pDBLeu (rat, UniProt P04386 1-147; P63251 180-501, limits assumed).
T2 construct: Yeast two-hybrid bait with the GIRK1 C terminus alone; also called C terminus of GIRK1
Description: as §1

For assay [3], the target named is T3, amino terminus of the GIRK1 subunit cloned into the vector pDBLeu (rat, UniProt P04386 1-147; P63251 1-80, limits assumed).
T3 construct: Yeast two-hybrid bait with the GIRK1 N terminus alone; also called N terminus of GIRK1
Description: as §1

Ends that are not written are not given here.

B1: nucleotide region 1011-1193 of SEQ ID NO: 1 (overlap of GIRK1NCprey2 and GIRK1NCprey3) cloned into the plasmid pPC86 (other, not shown: small tags and cut ends)
chain: ESERRLHERESEIMELKSQLARMREDWIEEECHRVEAQLALKEARKEIKQLKQVIETMRS
modifications: also: fused to GAL4 activation domain with pPC86 linker and tail residues
notes: Residue range converted from the printed nucleotide range; also called 1NCprey23o construct
Take B1: the binding result in assay [1] is recorded as “no binding”.

B2: GIRK1NCprey2 (nucleotides 1011-1349 of SEQ ID NO: 1, fragment of rat Mogli, in pPC86) (other)
chain: ESERRLHERESEIMELKSQLARMREDWIEEECHRVEAQLALKEARKEIKQLKQVIETMRSSLADKDKGIQKYFVDINIQNKKLESLLQSMEMAHNSSLRDELCLDFSFDSPE
notes: Residue range converted from the printed nucleotide range; also called prey plasmid; Mogli fragment
For B2, the binding result in assay [2] and in assay [3] was “no binding” throughout.

B3: GIRK1NCprey3 (nucleotides 500-1193 of SEQ ID NO: 1, fragment of rat Mogli, in pPC86) (other)
chain: RIGMVGEGNIQSARYKKESKGGIIKPGSEADFSSSSSTGSISAPEVHMSTTGNKRASFSRNRGPHGRSNGAPSHKSGSSPPSPREKDLVSMLCRNPLSPSNIHPSYAPSSPSSSNSGSYKGSDCSPVMRRSGRYMSCGENHGVKPPNPEQYLTPLQQKEVTVRHLRTKLKESERRLHERESEIMELKSQLARMREDWIEEECHRVEAQLALKEARKEIKQLKQVIETMRS
notes: as for B2
As to B3, the binding result in assay [2] and in assay [3] was “no binding” in each case.
